The results in this text go back to patent US20110008356A1.

By Kd is commonly meant the constant that tells how readily two partners part at equilibrium.

Assay [1] has as its target Human IL-17RA:Fc (human), Q96F46. The assay can be described thus: SPR (BIAcore 3000), receptor:Fc captured by anti-human Fc, cytokine as analyte, koff/kon, 1:1 Langmuir fit. As to conditions: remark: other sources report otherwise.
For a further assay, the target named is Human IL-17RC:Fc (human) (UniProt Q8NAC3). Described as above.

B1: Human IL-17F, Q96PD4 31-163 (ligand, UniProt Q96PD4 31-163, looked up)
chain: RKIPKVGHTFFQKPESCPPVPGGSMKLDIGIINENQRVSMSRNIESRSTSPWNYTVTWDPNRYPSEVVQAQCRNLGCINAQGKEDISMNSVPIQQETLVVRRKHQGCSVSFQLEKVLVTVGCTCVTPVIHHVQ
Molecule B1 registered a Kd in assay [1] of 100 nM.

B2: Human IL-17F (ligand, UniProt Q96PD4 31-163, looked up)
chain: B1 chain
The molecule B2 gave an equilibrium dissociation constant (Kd) with Human IL-17RC:Fc (human) of 0.1 nM.
